Data as given in paper PMC6557901, “Rif1 S-acylation mediates DNA double-strand break repair at the inner nuclear membrane”.

Target: T1, Rif1 NTD (100-1322) wild-type (Saccharomyces cerevisiae, UniProt P29539 100-1322)
T1 sequence: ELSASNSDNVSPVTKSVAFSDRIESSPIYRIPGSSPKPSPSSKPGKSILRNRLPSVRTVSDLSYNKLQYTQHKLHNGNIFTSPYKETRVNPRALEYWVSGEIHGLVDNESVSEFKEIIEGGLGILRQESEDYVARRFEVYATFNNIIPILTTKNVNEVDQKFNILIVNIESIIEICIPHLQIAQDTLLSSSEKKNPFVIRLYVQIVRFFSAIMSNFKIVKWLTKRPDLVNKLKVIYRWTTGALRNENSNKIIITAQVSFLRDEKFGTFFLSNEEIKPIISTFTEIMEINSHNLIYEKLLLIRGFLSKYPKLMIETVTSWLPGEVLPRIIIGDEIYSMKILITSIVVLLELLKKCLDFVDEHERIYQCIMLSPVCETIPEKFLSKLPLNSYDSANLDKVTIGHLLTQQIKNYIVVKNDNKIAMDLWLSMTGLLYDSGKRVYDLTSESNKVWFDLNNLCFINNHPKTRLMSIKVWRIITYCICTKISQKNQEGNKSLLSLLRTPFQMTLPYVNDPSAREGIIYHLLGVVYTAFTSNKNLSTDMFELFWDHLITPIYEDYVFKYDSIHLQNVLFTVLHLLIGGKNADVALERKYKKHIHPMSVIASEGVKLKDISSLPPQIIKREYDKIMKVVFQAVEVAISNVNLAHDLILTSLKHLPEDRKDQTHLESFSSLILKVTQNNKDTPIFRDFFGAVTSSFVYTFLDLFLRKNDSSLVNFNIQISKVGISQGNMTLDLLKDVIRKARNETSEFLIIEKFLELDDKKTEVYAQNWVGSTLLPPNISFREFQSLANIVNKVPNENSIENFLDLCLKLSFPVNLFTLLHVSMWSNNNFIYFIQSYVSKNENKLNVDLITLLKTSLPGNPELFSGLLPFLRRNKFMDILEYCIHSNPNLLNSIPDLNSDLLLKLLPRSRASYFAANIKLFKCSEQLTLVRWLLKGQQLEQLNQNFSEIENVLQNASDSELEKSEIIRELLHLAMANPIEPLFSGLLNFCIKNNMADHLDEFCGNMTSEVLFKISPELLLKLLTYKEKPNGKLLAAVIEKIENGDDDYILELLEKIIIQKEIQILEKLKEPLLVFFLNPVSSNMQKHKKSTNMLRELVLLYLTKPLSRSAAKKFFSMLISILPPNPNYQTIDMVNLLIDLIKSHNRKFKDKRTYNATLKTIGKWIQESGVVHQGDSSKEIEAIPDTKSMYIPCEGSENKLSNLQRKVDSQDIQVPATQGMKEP
Assay: EMSA; protein 10-160 nM, DNA 1 nM; 20 mM Tris-HCl pH 8.0, 100 mM NaCl, 2.5 mM MgCl2, 10 mM CaCl2, 0.1 mg/ml BSA, 1 mM TCEP, 30 min at 20 °C; 1.2% agarose gel, 0.5x TBE, 4 °C
Details: protein: recombinant; tags: N-terminal Strep(II); label: 5'-32P on EMSA1; blunt

B1: 30 bp dsDNA (EMSA1/EMSA2) (dsDNA)
DNA 1: TAGCAAGGCACTGGTAGAATTCGGCAGCGT
DNA 2: ACGCTGCCGAATTCTACCAGTGCCTTGCTA
B1: binds.
